One substance from paper PMC11109957 can be followed below.

This test addresses OGG1 (UniProt O15527). Put plainly: co-IP, Western blot. The following applies: reference: wild type, KBrO3; sites S46,S53.

Turning to “SIRT2 (from UniProt Q8IXJ6) S46AS53A, KBrO3”, the “binding against the reference” value is “weaker”.
